Test results reported in patent publication US20100130424A1 (Janssen / Centocor, published 2010).
Values belong to the binder of their own block, whether it stands above or below them. No end group written: not given here. *: point of attachment. Succinimide(1-Et,3-yl) = CCN1C(=O)CC(*)C1=O

Target: T1, human CRH receptor type 2 (human, UniProt Q13324 1-411)
T1 sequence (looked up): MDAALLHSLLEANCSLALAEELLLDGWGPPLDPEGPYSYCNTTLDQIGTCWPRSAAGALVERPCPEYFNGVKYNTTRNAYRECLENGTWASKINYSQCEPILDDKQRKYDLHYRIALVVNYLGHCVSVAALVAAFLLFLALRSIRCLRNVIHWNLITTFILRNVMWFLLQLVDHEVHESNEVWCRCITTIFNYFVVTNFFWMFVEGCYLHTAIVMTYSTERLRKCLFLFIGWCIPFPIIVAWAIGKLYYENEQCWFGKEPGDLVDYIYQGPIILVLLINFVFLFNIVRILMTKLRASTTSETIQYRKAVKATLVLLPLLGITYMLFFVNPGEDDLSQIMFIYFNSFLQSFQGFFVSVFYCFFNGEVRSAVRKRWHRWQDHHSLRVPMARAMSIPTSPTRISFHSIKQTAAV
Test: cell-based or functional assay

B1: Cys-variant of stresscopin peptide with N-Ethylsuccinimide (NES) reactive group, SEQ ID NO: 46 (peptide)
peptide: TKFTLSLDVPTNIMNLLFNIAKAKNLRAQAC(Succinimide(1-Et,3-yl))ANAHLMAQI-NH2
modifications: N-terminus assumed
SMILES: CC[C@H](C)[C@H](NC(=O)[C@H](CCC(N)=O)NC(=O)[C@H](C)NC(=O)[C@H](CCSC)NC(=O)[C@H](CC(C)C)NC(=O)[C@H](Cc1c[nH]cn1)NC(=O)[C@H](C)NC(=O)[C@H](CC(N)=O)NC(=O)[C@H](C)NC(=O)[C@H](CSC1CC(=O)N(CC)C1=O)NC(=O)[C@H](C)NC(=O)[C@H](CCC(N)=O)NC(=O)[C@H](C)NC(=O)[C@H](CCCNC(=N)N)NC(=O)[C@H](CC(C)C)NC(=O)[C@H](CC(N)=O)NC(=O)[C@H](CCCCN)NC(=O)[C@H](C)NC(=O)[C@H](CCCCN)NC(=O)[C@H](C)NC(=O)[C@@H](NC(=O)[C@H](CC(N)=O)NC(=O)[C@H](Cc1ccccc1)NC(=O)[C@H](CC(C)C)NC(=O)[C@H](CC(C)C)NC(=O)[C@H](CC(N)=O)NC(=O)[C@H](CCSC)NC(=O)[C@@H](NC(=O)[C@H](CC(N)=O)NC(=O)[C@@H](NC(=O)[C@@H]1CCCN1C(=O)[C@@H](NC(=O)[C@H](CC(=O)O)NC(=O)[C@H](CC(C)C)NC(=O)[C@H](CO)NC(=O)[C@H](CC(C)C)NC(=O)[C@@H](NC(=O)[C@H](Cc1ccccc1)NC(=O)[C@H](CCCCN)NC(=O)[C@@H](N)[C@@H](C)O)[C@@H](C)O)C(C)C)[C@@H](C)O)[C@@H](C)CC)[C@@H](C)CC)C(N)=O
Log DR against h-SCP, cAMP: 0.04 log10 ratio | pA50, cAMP: 9.43 -log M

B2: Cys-variant of stresscopin peptide with N-Ethylsuccinimide (NES) reactive group, SEQ ID NO: 45 (peptide)
peptide: TKFTLSLDVPTNIMNLLFNIAKAKNLRAQAAC(Succinimide(1-Et,3-yl))NAHLMAQI-NH2
modifications: N-terminus assumed
SMILES: CC[C@H](C)[C@H](NC(=O)[C@H](CCC(N)=O)NC(=O)[C@H](C)NC(=O)[C@H](CCSC)NC(=O)[C@H](CC(C)C)NC(=O)[C@H](Cc1c[nH]cn1)NC(=O)[C@H](C)NC(=O)[C@H](CC(N)=O)NC(=O)[C@H](CSC1CC(=O)N(CC)C1=O)NC(=O)[C@H](C)NC(=O)[C@H](C)NC(=O)[C@H](CCC(N)=O)NC(=O)[C@H](C)NC(=O)[C@H](CCCNC(=N)N)NC(=O)[C@H](CC(C)C)NC(=O)[C@H](CC(N)=O)NC(=O)[C@H](CCCCN)NC(=O)[C@H](C)NC(=O)[C@H](CCCCN)NC(=O)[C@H](C)NC(=O)[C@@H](NC(=O)[C@H](CC(N)=O)NC(=O)[C@H](Cc1ccccc1)NC(=O)[C@H](CC(C)C)NC(=O)[C@H](CC(C)C)NC(=O)[C@H](CC(N)=O)NC(=O)[C@H](CCSC)NC(=O)[C@@H](NC(=O)[C@H](CC(N)=O)NC(=O)[C@@H](NC(=O)[C@@H]1CCCN1C(=O)[C@@H](NC(=O)[C@H](CC(=O)O)NC(=O)[C@H](CC(C)C)NC(=O)[C@H](CO)NC(=O)[C@H](CC(C)C)NC(=O)[C@@H](NC(=O)[C@H](Cc1ccccc1)NC(=O)[C@H](CCCCN)NC(=O)[C@@H](N)[C@@H](C)O)[C@@H](C)O)C(C)C)[C@@H](C)O)[C@@H](C)CC)[C@@H](C)CC)C(N)=O
Log DR against h-SCP, cAMP: -0.01 log10 ratio | pA50, cAMP: 9.48 -log M

B4: Cys-variant of stresscopin peptide with N-Ethylsuccinimide (NES) reactive group, SEQ ID NO: 43 (peptide)
peptide: TKFTLSLDVPTNIMNLLFNIAKAKNLRAQAAANAC(Succinimide(1-Et,3-yl))LMAQI-NH2
modifications: N-terminus assumed
SMILES: CC[C@H](C)[C@H](NC(=O)[C@H](CCC(N)=O)NC(=O)[C@H](C)NC(=O)[C@H](CCSC)NC(=O)[C@H](CC(C)C)NC(=O)[C@H](CSC1CC(=O)N(CC)C1=O)NC(=O)[C@H](C)NC(=O)[C@H](CC(N)=O)NC(=O)[C@H](C)NC(=O)[C@H](C)NC(=O)[C@H](C)NC(=O)[C@H](CCC(N)=O)NC(=O)[C@H](C)NC(=O)[C@H](CCCNC(=N)N)NC(=O)[C@H](CC(C)C)NC(=O)[C@H](CC(N)=O)NC(=O)[C@H](CCCCN)NC(=O)[C@H](C)NC(=O)[C@H](CCCCN)NC(=O)[C@H](C)NC(=O)[C@@H](NC(=O)[C@H](CC(N)=O)NC(=O)[C@H](Cc1ccccc1)NC(=O)[C@H](CC(C)C)NC(=O)[C@H](CC(C)C)NC(=O)[C@H](CC(N)=O)NC(=O)[C@H](CCSC)NC(=O)[C@@H](NC(=O)[C@H](CC(N)=O)NC(=O)[C@@H](NC(=O)[C@@H]1CCCN1C(=O)[C@@H](NC(=O)[C@H](CC(=O)O)NC(=O)[C@H](CC(C)C)NC(=O)[C@H](CO)NC(=O)[C@H](CC(C)C)NC(=O)[C@@H](NC(=O)[C@H](Cc1ccccc1)NC(=O)[C@H](CCCCN)NC(=O)[C@@H](N)[C@@H](C)O)[C@@H](C)O)C(C)C)[C@@H](C)O)[C@@H](C)CC)[C@@H](C)CC)C(N)=O
Log DR against h-SCP, cAMP: -0.32 log10 ratio | pA50, cAMP: 9.79 -log M

B5: Cys-variant of stresscopin peptide with N-Ethylsuccinimide (NES) reactive group, SEQ ID NO: 44 (peptide)
peptide: TKFTLSLDVPTNIMNLLFNIAKAKNLRAQAAAC(Succinimide(1-Et,3-yl))AHLMAQI-NH2
modifications: N-terminus assumed
SMILES: CC[C@H](C)[C@H](NC(=O)[C@H](CCC(N)=O)NC(=O)[C@H](C)NC(=O)[C@H](CCSC)NC(=O)[C@H](CC(C)C)NC(=O)[C@H](Cc1c[nH]cn1)NC(=O)[C@H](C)NC(=O)[C@H](CSC1CC(=O)N(CC)C1=O)NC(=O)[C@H](C)NC(=O)[C@H](C)NC(=O)[C@H](C)NC(=O)[C@H](CCC(N)=O)NC(=O)[C@H](C)NC(=O)[C@H](CCCNC(=N)N)NC(=O)[C@H](CC(C)C)NC(=O)[C@H](CC(N)=O)NC(=O)[C@H](CCCCN)NC(=O)[C@H](C)NC(=O)[C@H](CCCCN)NC(=O)[C@H](C)NC(=O)[C@@H](NC(=O)[C@H](CC(N)=O)NC(=O)[C@H](Cc1ccccc1)NC(=O)[C@H](CC(C)C)NC(=O)[C@H](CC(C)C)NC(=O)[C@H](CC(N)=O)NC(=O)[C@H](CCSC)NC(=O)[C@@H](NC(=O)[C@H](CC(N)=O)NC(=O)[C@@H](NC(=O)[C@@H]1CCCN1C(=O)[C@@H](NC(=O)[C@H](CC(=O)O)NC(=O)[C@H](CC(C)C)NC(=O)[C@H](CO)NC(=O)[C@H](CC(C)C)NC(=O)[C@@H](NC(=O)[C@H](Cc1ccccc1)NC(=O)[C@H](CCCCN)NC(=O)[C@@H](N)[C@@H](C)O)[C@@H](C)O)C(C)C)[C@@H](C)O)[C@@H](C)CC)[C@@H](C)CC)C(N)=O
Log DR against h-SCP, cAMP: ~1.97 log10 ratio | pA50, cAMP: ~7.5 -log M

More lines, now with the values ahead:

Log DR against h-SCP, cAMP: ~0.74 log10 ratio | pA50, cAMP: ~9 -log M
Binder: TKFTLSLDVPTNIMNLLFNIAKAKNLRCQAAANAHLMAQI (NES-PEG MW12000 on Cys 28; C-terminal amide) [Pegylated Cys-variant CRHR2 peptide agonist (NES-PEG MW12000), SEQ ID NO: 97]

Log DR against h-SCP, cAMP: 0.18 log10 ratio | pA50, cAMP: 9.5 -log M
B3: Pegylated Cys-variant CRHR2 peptide agonist (NES-PEG-NEM MW20000), SEQ ID NO: 98 (peptide)
peptide: TKFTLSLDVPTNIMNLLFNIAKAKNLRCQAAANAHLMAQI
modifications: NES-PEG-NEM MW20000 on Cys 28 (double-ended linear PEG with an N-Ethylmaleimide cap at the non-linked end); C-terminal amide

Log DR against h-SCP, cAMP: 0.8 log10 ratio | pA50, cAMP: 8.94 -log M
Binder: TKFTLSLDVPTNIMNLLFNIAKAKNLRCQAAANAHLMAQI (NES-PEG MW30000 on Cys 28; C-terminal amide) [Pegylated Cys-variant CRHR2 peptide agonist (NES-PEG MW30000), SEQ ID NO: 99]

Log DR against h-SCP, cAMP: 1.1 log10 ratio | pA50, cAMP: 8.64 -log M
Binder: TKFTLSLDVPTNIMNLLFNIAKAKNLRCQAAANAHLMAQI (NES-PEG MW40000 on Cys 28; C-terminal amide) [Pegylated Cys-variant CRHR2 peptide agonist (NES-PEG MW40000), SEQ ID NO: 100]
